Test results as given in patent publication US20240343817A1 (STAIDSON BEIJING BIOPHARMACEUTICALS, published 2024).
Residue numbers refer to the chain shown, from its start. Each block holds one binder with its values, some of them ahead of it.

How the values were obtained:
[1] = target: T1, human CD40 extracellular domain (recombinant) (human, UniProt P25942 21-193); assay: ELISA; CD40 extracellular domain coated 0.1 µg/well, antibody titrated from 10 µg/mL 1:3, anti-human IgG-HRP
T1 construct: Extracellular domain expressed in 293F cells; also called hCD40; CD40-His; not shown: tag (His, Avi-His, mouse Fc or human Fc)
T1 sequence (P25942 21-193): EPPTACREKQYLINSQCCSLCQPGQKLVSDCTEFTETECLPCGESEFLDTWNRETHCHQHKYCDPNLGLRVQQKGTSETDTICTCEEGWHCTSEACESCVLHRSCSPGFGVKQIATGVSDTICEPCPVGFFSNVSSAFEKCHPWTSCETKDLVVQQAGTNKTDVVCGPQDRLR
Procedure: (§1) ELISA Binding Assay: The selected monoclonal full-length antibodies D1, D2, D3, D5, D6, or D7 were subjected to binding assays with CD40 extracellular domain of different species, respectively. The assay was designed to identify full-length antibodies that cross-reacted with CD40 of different species. Briefly, the human or Rhesus monkey CD40 prepared in example 1 was dissolved in PBS and coated on […] with 0.1 μg/well followed by incubation at 4° C. overnight. The 96-well plates were washed with TBST before adding antibodies, blocked with 5% milk for 1-2 h at 37° C., and washed again with TBST. Firstly, each antibody sample was diluted to 10 μg/mL, and then serially diluted at a 1:3 ratio. 100 μL of serially diluted antibodies were added to each well and incubated for 1 h at 37° C. After washing with TBST for 6 times, 100 μL of the secondary antibody (goat anti-human IgG-HRP (Sigma. A8667)) was added to each well and incubated for 1 h at 37° C. After washing with TBST for 3 times, TMB was added with 100 μL/well and incubated for 10-20 minutes at 37° C. 2M H₂SO₄ was used to stop the reaction and plates were read for the absorbance at 450 nm. The ELISA results were then analyzed and the binding curves were generated by PRISM.

[2] = target: T2, Rhesus monkey CD40 extracellular domain (recombinant) (Rhesus monkey, UniProt F6SNI1 21-193); assay: as above
T2 construct: extracellular domain; also called RheCD40
Procedure: as §1

human CD40 on cells [3] = target: T3, human CD40 on cells (human, UniProt P25942 21-277); assay: cell-based or functional assay
T3 sequence (P25942 21-277 limits assumed): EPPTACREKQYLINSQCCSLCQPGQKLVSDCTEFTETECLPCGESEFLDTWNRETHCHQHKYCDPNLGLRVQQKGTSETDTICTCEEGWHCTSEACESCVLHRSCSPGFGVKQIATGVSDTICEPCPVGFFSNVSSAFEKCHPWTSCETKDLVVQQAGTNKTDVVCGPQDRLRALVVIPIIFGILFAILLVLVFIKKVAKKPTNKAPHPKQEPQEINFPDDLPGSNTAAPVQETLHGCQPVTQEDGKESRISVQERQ

[4] = target: T2, Rhesus monkey CD40 extracellular domain …; assay: ELISA, plate coated with recombinant rhesus monkey CD40 extracellular domain, antibody (human IgG4 format) in serial dilution, anti-human IgG-HRP, OD450
Procedure: as §1
(§2) The biding affinity of the optimized full length CD40 antibodies with human or rhesus monkey CD40 was evaluated by Elisa according to the corresponding protocol as described in Example 2, and ASKP1240 was used as control.

[5] = target: T1, human CD40 extracellular domain …; assay: ELISA, plate coated with recombinant human CD40 extracellular domain, antibody (human IgG4 format) in serial dilution, anti-human IgG-HRP, OD450
Procedure: as §1, §2

[6] = target: T1, human CD40 extracellular domain …; assay: SPR, Biacore 8K; antibody on CM5 chip, hCD40 at various concentrations
Procedure: The binding affinity of the optimized anti-CD40 antibodies with human […] was characterized using Biacore 8K (GE). Anti-CD4 (antibodies were stabilized on sensor chip CM5 The affinities for hCD40 at various concentrations were measured. Using the SPR technology, the association and dissociation rates were measured, and binding affinity was determined.

human CD40 on cells [7] = target: T3, human CD40 on cells; assay: cell-based or functional assay; remark: listed apart in the source

B1: D5 (antibody, V domains shown)
VH: EVQLQQSGAELVSPGVSVKISCKGSGYTFTDHGMHWVKQSHAKSLEWIGVISTSYGVATYNQKFKGKATLSVDKSSSTAYLELARLTSEDSAIYYCARRDSKSPFDYWGQGTTLTVSS
VL: QIVLTQSPAIMSASPGEKITITCSASSSISSNYLHWYQQKPGFSPKLLIYRTSNLASGVPARFSGSGSGTSYSLTISSMEAEDAATYYCHQYHRSPLTFGAGTKLELK
notes: Full-length chimeric antibody: mouse variable domains with a human IgG1 or IgG4 heavy chain constant domain and a human kappa light chain constant domain; also called anti-CD40 antibody D5
EC50 [1]: 0.274 µg/mL
EC50 [2]: 0.627 µg/mL
IC50, HEK-Blue CD40L NF-κB activation assay (SEAP), Fc-3*G4S-CD40L stimulus (human CD40 on cells [3]): 0.0142 µg/mL

B2: D21 (antibody, human IgG4, V domains shown)
VH: QVQLVQSGAEVKKPGASVKVSCKASVYSFTGYTVNWVRQAPGQRLEWMGLINPRNGGTTYNQKFKGRVTLTIDKSASTAYMELSSLRSEDTAVYYCAWSYYSNPYAMDYWGQGTLVTVSS
VL: EIVMTQSPATLSVSPGERATLSCKASQNVHTRVAWYQQKPGQAPRLLIYLASDRRTGIPARFSGSGSGTEFTLTISSLQSEDFAVYYCLQHWNYPLTFGQGTKVEIK
notes: also called optimized anti-CD40 antibody D21
EC50 (read off the curve) [4]: ~0.1 µg/mL
EC50 (read off the curve) [5]: ~0.2 µg/mL
Kd [6]: 2.54 nM
koff [6]: 0.000606 s⁻¹
kon [6]: 238000 M⁻¹ s⁻¹
IC50, HEK-Blue CD40L NF-κB activation assay (SEAP), antibody as human IgG4 (human CD40 on cells [7]): 0.0102 µg/mL

B4: D46 (antibody, human IgG4, V domains shown)
VH: B2 VH with R54Y, N55S, W98S, S102V
VL: B2 VL
IC50, HEK-Blue CD40L NF-κB activation assay (SEAP), antibody as human IgG4 (human CD40 on cells [7]): 0.0112 µg/mL

B8: D26 (antibody, human IgG4, V domains shown)
VH: B2 VH with R54Y, G57R, W98S, M107N
VL: B2 VL
notes: also called optimized anti-CD40 antibody D26
EC50 (read off the curve) [4]: ~0.1 µg/mL
EC50 (read off the curve) [5]: ~0.2 µg/mL
Kd [6]: 2.74 nM
koff [6]: 0.000596 s⁻¹
kon [6]: 218000 M⁻¹ s⁻¹
IC50, HEK-Blue CD40L NF-κB activation assay (SEAP), antibody as human IgG4 (human CD40 on cells [7]): 0.00908 µg/mL

B9: D2 (antibody, V domains shown)
VH: EVHVKQSGAELVKPGASVKLSCTASGFNIKDAYMHWVKQRPEQGLEWIGRIDPANGNTKYDPKFQGKASITTDTSSNTAYLQLSSLTSEDTAVYYCTPNYYGSRYPFAYWGQGTTVTVSS
VL: DIVLTQSPAIMSASPGEKVSITCSASSSVSYMHWFQQKPGTSPKLWIYSTSNLASGVPARFSGSGSGTSYSLTISRMEADDAATYYCQQGSSYPLTFGAGTKLELK
notes: Full-length chimeric antibody: mouse variable domains with a human IgG1 or IgG4 heavy chain constant domain and a human kappa light chain constant domain; also called anti-CD40 antibody D2
EC50 [1]: 0.193 µg/mL
EC50 [2]: 0.473 µg/mL
IC50, HEK-Blue CD40L NF-κB activation assay (SEAP), Fc-3*G4S-CD40L stimulus (human CD40 on cells [3]): 0.0171 µg/mL

B10: D4 (antibody, V domains shown)
VH: EVMLVESGAELVRPGASVKLSCTASGFKIKDSYIHWMIQRPEQGLEWIGRIDPTNGNTNFDPKFRGKATLTTDTSSNTAYLQLSSLTSEDTAVYYCVPNYYGSRYPFSYWGQGTTVTVSS
VL: B9 VL with D1Q, S20T, I21M, A25G, T41N, L45I, S49F, D80G, S92T
IC50, HEK-Blue CD40L NF-κB activation assay (SEAP), Fc-3*G4S-CD40L stimulus (human CD40 on cells [3]): 0.0167 µg/mL

B11: D7 (antibody, V domains shown)
VH: QIQLLQSGAELVKPGASVKLSCTASGFNIKDAYMHWVKQRPEQGLEWIGRIDPANGYTKSDPKFQGKATITSDTSSNTAYLQLSSLTSEDTAVYYCAPNYYGSRYPFAYWGQGTLVTVSS
VL: B9 VL with D1Q, S20T, L45I, S49F, D80E, S92T
notes: Full-length chimeric antibody: mouse variable domains with a human IgG1 or IgG4 heavy chain constant domain and a human kappa light chain constant domain; also called anti-CD40 antibody D7
EC50 [1]: 0.261 µg/mL
EC50 [2]: 0.133 µg/mL
IC50, HEK-Blue CD40L NF-κB activation assay (SEAP), Fc-3*G4S-CD40L stimulus (human CD40 on cells [3]): 0.017 µg/mL

B12: D6 (antibody, V domains shown)
VH: QVQLQQSGAELVRPGVSVKISCKGSGYTFTDHAIHWVKQSHARRLEWIGAISTNYGAATYNQKFKGKATMTVDKSSSTAYMELARLTSEDSAIYYCARRGSHGDWFAYWGQGTLVTVSA
VL: B9 VL with V3E, S20T, A59V, R76S, D80E, Q88H, G90Y, S91H, S92R, Y93S
notes: Full-length chimeric antibody: mouse variable domains with a human IgG1 or IgG4 heavy chain constant domain and a human kappa light chain constant domain; also called anti-CD40 antibody D6
EC50 [1]: 0.176 µg/mL
EC50 [2]: 0.243 µg/mL
IC50, HEK-Blue CD40L NF-κB activation assay (SEAP), Fc-3*G4S-CD40L stimulus (human CD40 on cells [3]): 0.00712 µg/mL

B13: D3 (antibody, V domains shown)
VH: B9 VH with H3Q, V4L, K5Q, A32S, S69T, T72A, T97V, S103A, R104A
VL: B9 VL with T5I, S20T, L45V, S62G, D80E
notes: Full-length chimeric antibody: mouse variable domains with a human IgG1 or IgG4 heavy chain constant domain and a human kappa light chain constant domain; also called anti-CD40 antibody D3
EC50 [1]: 0.224 µg/mL
EC50 [2]: 0.0743 µg/mL
IC50, HEK-Blue CD40L NF-κB activation assay (SEAP), Fc-3*G4S-CD40L stimulus (human CD40 on cells [3]): 0.0224 µg/mL

B14: D1 (antibody, V domains shown)
VH: EVQLQQSGPDLVKPGASMKISCKASVYSFTGYTVNWVKQSHGKSLEWIGLINPYNGGTTYNQKFKGKATLTIDKSSTTAYMELLSLTSEDSAVYYCASSYYSNPYAMDYWGQGTSVTVSS
VL: DIVLNQSQKFMSTSVGDRVSITCKASQNVHTAVAWYQQKPGQSPKALIYLASDRRTGIPDRFTGSGSGTDFTLTIDNVQSEDLADYFCLQHWNYPLTFGAGTKLELK
notes: Full-length chimeric antibody: mouse variable domains with a human IgG1 or IgG4 heavy chain constant domain and a human kappa light chain constant domain; also called anti-CD40 antibody D1; mouse antibody D1
EC50 [1]: 0.236 µg/mL
EC50 [2]: 0.227 µg/mL
IC50, HEK-Blue CD40L NF-κB activation assay (SEAP), Fc-3*G4S-CD40L stimulus (human CD40 on cells [3]): 0.0215 µg/mL

Next, values leading:

IC50, HEK-Blue CD40L NF-κB activation assay (SEAP), antibody as human IgG4 (human CD40 on cells [7]): 0.0184 µg/mL
B3: D51 (antibody, human IgG4, V domains shown)
VH: B2 VH with R54E, W98S, M107N
VL: B2 VL

IC50, HEK-Blue CD40L NF-κB activation assay (SEAP), antibody as human IgG4 (human CD40 on cells [7]): 0.0142 µg/mL
B5: D50 (antibody, human IgG4, V domains shown)
VH: B2 VH with R54Y, T59A, W98S, N103D, M107N
VL: B2 VL

IC50, HEK-Blue CD40L NF-κB activation assay (SEAP), antibody as human IgG4 (human CD40 on cells [7]): 0.0307 µg/mL
B6: D48 (antibody, human IgG4, V domains shown)
VH: B2 VH with R54S, W98S, M107N
VL: B2 VL with R32H

EC50 (read off the curve) [4]: ~0.1 µg/mL
EC50 (read off the curve) [5]: ~0.2 µg/mL
Kd [6]: 1.5 nM
koff [6]: 0.000295 s⁻¹
kon [6]: 196000 M⁻¹ s⁻¹
IC50, HEK-Blue CD40L NF-κB activation assay (SEAP), antibody as human IgG4 (human CD40 on cells [7]): 0.0112 µg/mL
B7: D49 (antibody, human IgG4, V domains shown)
VH: B2 VH with R54Y, T59S, W98S, Y100P
VL: B2 VL with N93T
notes: also called optimized anti-CD40 antibody D49
